Results on one substance are retold here after US20190248875A1.

This assay deals with envelope protein of DENV type 2 (DENV2), strain NGC M29095 (dengue virus type 2 (strain NGC)) (UniProt P14340). The assay is described as follows: cell-based or functional assay.

As for “4G2 antibodies against the envelope protein of Flavivirus (antibody)”, the fold of infection enhancement of DENV2 in K562 cells (ADE assay) is 60 fold.
